To fix the notation:
B1: variant 10014 (antibody)
heavy: EVQLVESGGGLVQPGGSLRLSCAASGFTFADYTMDWVRQAPGKGLEWVADVNPNSGGSIYNQRFKGRFTLSVDRSKNTLYLQMNSLRAEDTAVYYCARNLGPSFYFDYWGQGTLVTVSSASTKGPSVFPLAPSSKSTSGGTAALGCLVKDYFPEPVTVSWNSGALTSGVHTFPAVLQSSGLYSLSSVVTVPSSSLGTQTYICNVNHKPSNTKVDKKVEPKSCDKTHTCPPCPAPELLGGPSVFLFPPKPKDTLMISRTPEVTCVVVDVSHEDPEVKFNWYVDGVEVHNAKTKPREEQYNSTYRVVSVLTVLHQDWLNGKEYKCKVSNKALPAPIEKTISKAKGQPREPQVYVYPPSRDELTKNQVSLTCLVKGFYPSDIAVEWESNGQPENNYKTTPPVLDSDGSFALVSKLTVDKSRWQQGNVFSCSVMHEALHNHYTQKSLSLSPG
light: not shown
Fc: not shown
notes: OA format; combines the mutations of 12610 and 12611; also called v10014
B2: variant 12533 (antibody, human IgG1, kappa)
heavy: B1 heavy with A30T
light: DIQMTQSPSSLSASVGDRVTITCKASQDVSIGVAWYQQKPGKAPKLLIYSASYRYTGVPSRFSGSGSGTDFTLTISSLQPEDFATYYCQQYYIYPAAFGQGTKVEIKRTVAAPSVFIFPPSDEQLKSGTASVVCLLNNFYPREAKVQWKVDNALQSGNSQESVTEQDSKDSTYSLSSTLTLSKADYEKHKVYACEVTHQGLSSPVTKSFNRGEC
chain: not shown
notes: also called v12533
B3: variant 12534 (antibody, human IgG1, kappa)
heavy: B1 heavy with F64V
light: not shown
chain: not shown
notes: also called v12534
B4: variant 12611 (antibody, human IgG1, kappa)
heavy: B1 heavy with A30T
light: not shown
chain: not shown
notes: OA pertuzumab variant, LC Y96A (Kabat); also called v12611
B5: variant 12529 (antibody, human IgG1, kappa)
heavy: B1 heavy with A30T
light: not shown
chain: not shown
notes: also called v12529
B6: variant 12610 (antibody, human IgG1, kappa)
heavy: B1 heavy
light: not shown
chain: not shown
notes: OA pertuzumab variant, HC T30A (Kabat); also called v12610
B7: Variant 14023 (antibody, name in Kabat numbering, V domains shown)
VH: EVQLVESGGGLVQPGGSLRLSCAASGFTFQDYTMDWVRQAPGKGLEWVGDVNPNSGGSIYNQRFKGRFTFSVDRSWNTLYLQMNSLRAEDTAVYYCARNLGPWFYFDYWGQGTLVTVSS
VL: DIQMTQSPSSLSASVGDRVTITCKASQDVSIGVAWYQQKPGKAPKLLIWSASYRYTGVPSRFSGSGSGTDFTLTISSLQPEDFATYYCQQYYIYPYTFGQGTKVEIKR
notes: also called v14023
B8: Variant 14025 (antibody, human IgG1, kappa)
heavy: B1 heavy with A30Q, K76W
light: not shown
chain: not shown
notes: OA (one-armed) format; clones 8775, 1811, 4372; also called v14025
B9: Variant 14032 (antibody, human IgG1, kappa)
heavy: B1 heavy with A30Q, S103W
light: not shown
chain: not shown
notes: OA (one-armed) format; clones 8780, 1811, 4372; also called v14032
B10: Variant 14043 (antibody, human IgG1, kappa)
heavy: B1 heavy with A30Q, K76W
light: not shown
chain: not shown
notes: OA (one-armed) format; clones 8775, 7919, 4372; also called v14043
B11: Variant 14055 (antibody, human IgG1, kappa)
heavy: B1 heavy with A30Q, K76W, S103W
light: not shown
chain: not shown
notes: OA (one-armed) format; clones 8784, 7919, 4372; also called v14055
B12: Variant 14050 (antibody, human IgG1, kappa)
heavy: B1 heavy with A30Q, S103W
light: not shown
chain: not shown
notes: OA (one-armed) format; clones 8780, 7919, 4372; also called v14050
B13: Variant 14024 (antibody, human IgG1, kappa)
heavy: B1 heavy with A30T, K76W
light: not shown
chain: not shown
notes: OA (one-armed) format; clones 7844, 7919, 4372; also called v14024
B14: Variant 10014 (antibody)
heavy: B1 heavy
light: not shown
Fc: not shown
notes: Fc substitutions are in EU numbering; also called v10014

Substitutions are numbered along the chain they refer to. Names and notes keep the numbering of the source.

One assay has as its target T1, Recombinant human HER2 (human, UniProt P04626 23-652).
T1 construct: extracellular domain; analyte of the SPR assays; also called HER2 ECD; ECD2 of HER2
Put plainly: SPR, variant captured on anti-human Fc, HER2 flowed, 25 C, post-SEC. On the technique in general: In SPR one partner is held on a chip, and binding of the other changes the refractive index at the surface.
Protocol: (§1) The affinity towards HER2 ECD of the samples was measured by SPR on a Biacore T200 as follows. Between 2000 and 4000 RU of anti-human Fc injected at concentration between 5 and 10 μg/ml was immobilized on a CM5 chip using standard amine coupling. Antigen-binding constructs were captured on the anti-human Fc (injected at concentration at 0.51 microg/mL in PBST, 1 min at 10 microl/min) at response levels ranging from 120-270 RU. […] HER2 dilutions were analyzed in duplicates. Sensograms were fit globally to a 1: 1 Langmuir binding model, using the software provided with the Biacore T200. All experiments were conducted at 25° C.
(§2) The affinity of antigen-binding constructs in OA format was determined by SPR following protein A purification. […] Antigen-binding constructs in FSA format were purified by protein A affinity and SEC prior to assessment of affinity by SPR.
What is called Kd is the constant that tells how readily two partners part at equilibrium. In the case of B1, the Kd stood at 2.6 nM.
Turning to B2, the Kd turned out to be 7.2 nM.
B3: the Kd was 2.8 nM.
With B4, the Kd was determined as 11 nM.
With B5, the Kd turned out to be 9 nM.
As to B6, the Kd amounted to 4.6 nM.

A further assay concerns the target T2, HER2 expressed on the surface of cells (human, UniProt P04626 23-1255).
T2 construct: whole, on cells; also called ErbB2
Put plainly: flow cytometry on BT474 cells, n=1; B50 = concentration at 50% of Bmax. In general terms: In flow cytometry, cells or beads pass a laser one at a time.
Protocol: (§3) Binding of the test antigen-binding constructs to the surface of HER2+ cells was determined by flow cytometry. Cells were washed with PBS and resuspended in DMEM at 1×10⁵ cells/100 μl. 100 μl cell suspension was added into each microcentrifuge tube, followed by 10 μl/tube of the antigen-binding constructs. The tubes were incubated for 2 hr at 4° C. on a rotator. The microcentrifuge tubes were centrifuged for 2 min 2000 RPM at room temperature and the cell pellets washed with 500 μl media. Each cell pellet was resuspended in 100 μl of fluorochrome-labelled secondary antibody diluted in media to 2 μg/sample. The samples were then incubated for lhr at 4° C. on a rotator. After incubation, the cells were centrifuged for 2 min at 2000 rpm and washed in media. The cells were resuspended in 500 μl media, filtered, transferred to a tube containing 5 μl propidium iodide (PI) and analyzed on a BD LSR II flow cytometer according to the manufacturer's instructions. The B50 of the tested antigen-binding constructs was assessed by FACS with data analysis and curve fitting performed in GraphPad Prism. The experiment was carried out once (n=1) in SKBr3 cells, and twice (n=2) in SKOV3, MCF7, and BT-474 cells.
(§4) The experiment was performed once (n=1) in each cell line.
In the case of B7, the B50 came to 2 nM.

The next assay concerns the target T1, Recombinant human HER2. In words: SPR, pre-SEC; ratio to WT v10013.
Protocol: as §1, §2
For the molecule B1, the “Ka, mut/Ka, WT” value was 7.9.
With B2, the “Ka, mut/Ka, WT” value is 3.2.
Same read-out and setting: the value for B3 was 8.3; that for B4 was 1.8; that for B5 was 2.1.
Turning to B6, the “Ka, mut/Ka, WT” value worked out at 3.9.

The next assay concerns the target T2, HER2 expressed on the surface of cells. In words: cell-based or functional assay.
With B7, the “growth inhibition span (percentage of cells killed), MDA-MB-175 cells” value was determined as 84%.

The target in the next assay is T1, Recombinant human HER2. In words: SPR, variant captured on anti-human Fc, HER2 flowed, 25 C, pre-SEC.
Protocol: as §1
In the case of B1, the Kd worked out at 2.5 nM.
The same measure, in the same setting: the value for B2 was 6.2 nM; that for B3 was 2.4 nM; that for B4 was 11 nM.
For the molecule B5, the Kd amounted to 9.2 nM.
The same measure, in the same setting: the value for B6 was 5.1 nM.

The next assay concerns the target T2, HER2 expressed on the surface of cells. In words: cell-based or functional assay. The source holds these as a separate data set.
Consider B7, for which the “growth inhibition IC50 (potency), BT474 cells” value was found to be 0.63 nM; the “growth inhibition span (percentage of cells killed), BT474 cells” value turned out to be 35%; the “growth inhibition span ratio to WT, BT474 cells” value was determined as 3.3 fold.

A further assay addresses T3, Recombinant human HER2 (human, UniProt P04626 23-652).
T3 construct: extracellular domain; Analyte of the SPR assays; also called HER2 ECD; ECD2 of HER2
Put plainly: SPR at 25 C of the OA variant, equilibrium association constant.
Protocol: as §1
As to B8, the Ka turned out to be 2.5e+09 M⁻¹.
Same read-out and setting: the value for B9 was 1.3e+09 M⁻¹; that for B10 was 5.3e+09 M⁻¹; that for B11 was 4.7e+09 M⁻¹.
As for B12, the Ka turned out to be 6.2e+08 M⁻¹.
On the same count and under the same terms, the figure for B13 is 4e+09 M⁻¹.
For the molecule B14, the Ka is 4.7e+08 M⁻¹.

The next assay has as its target T3, Recombinant human HER2. In words: SPR at 25 C of the OA variant, logarithm of the association constant.
Protocol: as §1
In the case of B8, the “Log Ka” value stood at 9.4.
Same read-out and setting: the figure for B9 is 9.1; for B10 it is 9.7.
For B11, the “Log Ka” value came to 9.7.
As to B12, the “Log Ka” value came out at 8.8.
On the same count and under the same terms, the value for B13 was 9.6; that for B14 was 8.7.

The target in the next assay is T3, Recombinant human HER2. In words: calculated from the SPR Ka ratio to WT v10013.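 Note: SPR at 25 °C with constructs captured on an anti-human Fc chip and HER2 extracellular domain as analyte, kinetics fitted to a 1:1 Langmuir model.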
Protocol: as §1
For B8, the ΔΔG was -2.2 kcal/mol.
As to B9, the ΔΔG was -1.8 kcal/mol.
On the same count and under the same terms, the value for B10 was -2.7 kcal/mol; that for B11 was -2.6 kcal/mol.
With B12, the ΔΔG is -1.5 kcal/mol.
The same measure, in the same setting: the value for B13 was -2.5 kcal/mol.

The target of the next assay is T2, HER2 expressed on the surface of cells. Put plainly: flow cytometry on MCF7 cells (low HER2), n=1; B50 = concentration at 50% of Bmax.
Protocol: as §3, §4
Molecule B7 yielded a B50 of 0.8 nM.

A further assay shares this target. In words: cell-based or functional assay. The source holds these as a separate data set.
For the molecule B7, the “growth inhibition IC50 (potency), NCI-N87 cells, 5 days” value was found to be 2.5 nM; the “growth inhibition span (percentage of cells killed), NCI-N87 cells” value came out at 52%; the “increase in efficacy with respect to the WT, NCI-N87 cells” value is 3.1 fold; the “increase in potency with respect to the WT, NCI-N87 cells” value is 3.6 fold.

For a further assay the target is unchanged. In words: flow cytometry on SKBR3 cells, n=1; B50 = concentration at 50% of Bmax.
Protocol: as §3, §4
As to B7, the B50 is 3.9 nM.

For the next assay, the target named is T3, Recombinant human HER2. Put plainly: SPR at 25 C of the OA variant, equilibrium association constant. The source holds these as a separate data set.
Protocol: as §1
As to B8, the Ka stood at 2.5e+09 M⁻¹.
Still for that read-out and setting: the value for B9 was 1.3e+09 M⁻¹.
The same measure, in the same setting: the figure for B10 is 5.3e+09 M⁻¹.
The same measure, in the same setting: the figure for B11 is 4.7e+09 M⁻¹.
On to B12, for which the Ka was 6.2e+08 M⁻¹.
Consider B13, for which the Ka was 4e+09 M⁻¹.
As to B14, the Ka stood at 4.7e+08 M⁻¹.

Another assay has as its target T2, HER2 expressed on the surface of cells. In words: flow cytometry on MCF7 cells (low HER2), n=1.
Protocol: as §3, §4
Consider B7, for which the Bmax was found to be 590 MFI.

A further assay has the same target. In words: flow cytometry on SKBR3 cells, n=1.
Protocol: as §3, §4
B7 gave a Bmax of 29000 MFI.

Another assay deals with T3, Recombinant human HER2. In words: SPR, 25 C; Ka ratio to WT v10013.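 Note: constructs captured via anti-human Fc on CM5 chip, HER2 ECD as analyte in duplicate dilutions, sensorgrams globally fit to 1:1 Langmuir model on Biacore T200.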
Protocol: as §1
For B8, the “Ka, mut/Ka, WT” value was approximately 41 fold.
Same read-out and setting: the value for B9 was 21 fold; that for B10 was approximately 102 fold; that for B11 was approximately 77 fold.
Still for that read-out and setting: the value for B12 was 12 fold; that for B13 was approximately 67 fold.

The next assay addresses T2, HER2 expressed on the surface of cells. Put plainly: flow cytometry on BT474 cells, n=1.
Protocol: as §3, §4
Regarding B7, the Bmax stood at 23000 MFI.

Another assay concerns the target T3, Recombinant human HER2. Put plainly: SPR, Biacore T200, 25 C; variant captured on anti-human Fc, HER2 flowed.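 Note: HER2 extracellular domain analyte run as duplicate dilutions over amine-coupled anti-Fc on a CM5 chip, rates from global sensorgram fitting with a 1:1 Langmuir model.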
Protocol: as §1
One may read the koff as the first-order rate constant of dissociation. By kon is commonly meant a measure of how fast the partners come together. B8: the Kd was approximately 0.4 nM, the koff was approximately 2.6e-05 s⁻¹ and the kon turned out to be 65000 M⁻¹ s⁻¹.
Turning to B9, the dissociation constant (Kd) was 0.79 nM, the koff worked out at 3.9e-05 s⁻¹ and the kon came out at 49000 M⁻¹ s⁻¹.
In the case of B10, the Kd is approximately 0.19 nM, the koff was approximately 1.4e-05 s⁻¹ and the kon worked out at 73000 M⁻¹ s⁻¹.
On to B11, for which the Kd is approximately 0.21 nM, the koff is approximately 1.6e-05 s⁻¹ and the kon amounted to 73000 M⁻¹ s⁻¹.
Taken in the same sequence, the figures for B12 were 1.6 nM, 7.4e-05 s⁻¹ and 46000 M⁻¹ s⁻¹.
Turning to B13, the Kd was approximately 0.25 nM, the koff was approximately 2.1e-05 s⁻¹ and the kon worked out at 85000 M⁻¹ s⁻¹.

The next assay deals with T2, HER2 expressed on the surface of cells. Put plainly: cell-based or functional assay. The source holds these as a separate data set.
Take B7: the “growth inhibition IC50 (potency), SKBR3 cells” value was 0.34 nM; the “growth inhibition span (percentage of cells killed), SKBR3 cells” value stood at 32%; the “growth inhibition span ratio to WT, SKBR3 cells” value was 1.9 fold.

In a further assay the target is T1, Recombinant human HER2. In words: SPR, post-SEC; ratio to WT v10013.
Protocol: as §1, §2
For the molecule B1, the “Ka, mut/Ka, WT” value was determined as 8.
Regarding B2, the “Ka, mut/Ka, WT” value amounted to 2.9.
Same read-out and setting: the figure for B3 is 7.4; for B4 it is 1.8; for B5 it is 2.3.
The same measure, in the same setting: the value for B6 was 4.5.

The target of a further assay is T3, Recombinant human HER2. In words: SPR at 25 C of the OA variant, logarithm of the association constant. The source holds these as a separate data set.
Protocol: as §1
Take B8: the “Log Ka” value amounted to 9.4.
On the same count and under the same terms, the figure for B9 is 9.1; for B10 it is 9.7.
For B11, the “Log Ka” value turned out to be 9.7.
Still for that read-out and setting: the figure for B12 is 8.8; for B13 it is 9.6.
For B14, the “Log Ka” value is 8.7.

For another assay, the target named is T2, HER2 expressed on the surface of cells. In words: cell-based or functional assay. This is another data set of the same source.
Take B7: the “growth inhibition IC50 (potency), BT474 cells + EGF” value came out at 1.7 nM; the “growth inhibition span (percentage of cells killed), BT474 cells + EGF” value was found to be 45%; the “growth inhibition span ratio to WT, BT474 cells + EGF” value was 2.5 fold.

The values above are taken from patent publication US20180273635A1 (Zymeworks, published 2018).
